Measurements published in patent publication US20190233498A1 (H LUNDBECK A S, published 2019).

T1: human PACAP38 (human, not fully specified; C-terminal lysine is amidated; N-terminal or C-terminal biotin in the HTRF and PC-12 cell binding assays)
T1 peptide: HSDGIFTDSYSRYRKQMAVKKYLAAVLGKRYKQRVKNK

T2: human VIP (human)
T2 construct: also called Vasoactive Intestinal Peptide
T2 peptide: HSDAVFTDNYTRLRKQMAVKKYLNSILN

T3: human PACAP27 (human, C-terminal leucine is amidated; 125I-labelled in Example 10)
T3 peptide: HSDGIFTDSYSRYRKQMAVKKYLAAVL


What was measured:
[1] = target: T1, human PACAP38; assay: cell-based or functional assay
[2] = target: T1, human PACAP38; assay: inhibition of 30 nM biotin-PACAP38 binding to PC-12 cells, TRF
Experimental: To identify antibodies that block PACAP38 binding to PAC1-R-expressing cells, adherent PC-12 cells (ATCC, Manassas, Va.) expressing PAC1-R were used in a Europium-based PAC1-R expressing cells binding assay.
Antibody solutions were incubated with N-terminal biotinylated PACAP38 at 10× the final concentration (100 nM or 30 nM) for 1 hr, then added to PC-12 cells that were plated 24 hrs. prior in black clear bottom 96 well plates (COSTAR™, Corning Incorporated, Corning, N.Y.) and further incubated for 1 hr at room temperature. After three washes, the cells were incubated with 20 μl Europium-labeled streptavidin (PerkinElmer, Waltham, Mass.) for 1 hr at room temperature. Cells were washed three times, then 20 μl DELFIA® Enhancement solution (PerkinElmer, Waltham, Mass.) was added to each well and incubated for 15 minutes with gentle shaking. Plates were read (Time Resolved Fluorescence (“TRF”)) on SPECTRAMAX® (Molecular Devices, Sunnyvale, Calif.) plate reader.
FIGS. 14A-14BB are representative of the inhibition curves obtained by this method (results are shown for Ab1, Ab2, Ab3, Ab4, Ab5, Ab6, Ab7, Ab8, Ab9, Ab10, Ab11, Ab12, Ab13, Ab14, Ab15, Ab16, Ab17, Ab18, Ab19, Ab1.H, Ab10.H, Ab22, Ab23, Ab3.H, Ab4.H, Ab5.H, Ab9.H, and Ab12.H, respectively) wherein the PAC1-R expressing cells were PC-12 cells.

[3] = target: T1, human PACAP38; assay: cell-based or functional assay
[4] = target: T2, human VIP; assay: SPR, Ab immobilised
[5] = target: T1, human PACAP38; assay: SPR, Ab immobilised
Outline: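 SPR with antibody amine-coupled to the chip and human PACAP38 flowed as analyte at 1.23–100 nM in PBST containing 0.25 M arginine, 0.2 mg/ml BSA and 0.005% azide, pH 7. Association lasted 2–4 min and dissociation 3–120 min. Kinetics were fitted to a 1:1 Langmuir model.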

[6] = target: T3, human PACAP27; assay: SPR, Ab immobilised
[7] = target: T3, human PACAP27; assay: inhibition of 0.1 nM 125I-PACAP27 binding to human PAC1-R membranes
Experimental: To identify antibodies that block PACAP27 binding to PAC1-R, antibodies at an initial concentration of 30 nM were diluted in incubation buffer (50 mM Hepes pH 7.4, 1 mM CaCl₂, 5 mM MgCl₂, 0.2% BSA) and serial 1:3 dilutions were performed. Antibody dilutions (30 nM, 10 nM, 3 nM, 1 nM, 0.3 nM, 0.1 nM, 0.03 nM, 0.01 nM, 0.003 nM and 0.001 nM) were then mixed and pre-incubated at 25° C. for 30 minutes with 0.1 nM of ¹²⁵I-labelled PACAP27 in incubation buffer. The antibody: ¹²⁵I-labelled PACAP27 mixture was then added to 0.5 μg aliquots of cell membranes derived from Chem-1 cells expressing human recombinant PAC1-R long isoform in incubation buffer. The mixture was then incubated for 1 hour at 25° C. Following incubation, the samples were filtered and washed. Afterward, the filters were counted to quantitate ¹²⁵I-labelled PACAP27. As an experimental control, non-specific binding to the cell membranes was estimated using 0.1 μM of […] PACAP27.

[8] = target: T1, human PACAP38; assay: cell-based or functional assay
[9] = target: T3, human PACAP27; assay: cell-based or functional assay
[10] = target: T1, human PACAP38; assay: HTRF binding, biotin-PACAP38
Outline: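 Antibody dilution series (top 100 nM final) incubated with N- or C-terminal biotinylated PACAP38 (35 nM final), alone or with 350 nM PACAP27 or VIP. HTRF with Eu³⁺ anti-human Fc donor and d2-streptavidin acceptor, 1 h at room temperature, read at 620/665 nm; EC₅₀ from binding curves.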

IC50, 1 nM PACAP38-induced human VPAC2-R mediated cAMP increase [1]	IC50 [2]	IC50, 5 nM PACAP38-induced human VPAC1-R mediated cAMP increase [3]	Kd [4]	koff [4]	kon [4]	Kd [5]	koff [5]	kon [5]	Kd [6]	koff [6]	kon [6]	IC50 [7]	IC50, 0.1 nM PACAP38-induced PAC1-R mediated cAMP increase [8]	IC50, 0.1 nM PACAP27-induced PAC1-R mediated cAMP increase [9]	EC50 [10]	Binder
653 pM	68.1 nM	1280 pM	51 nM	0.014 s⁻¹	280000 M⁻¹ s⁻¹	≤ 0.026 nM	≤ 1e-05 s⁻¹	380000 M⁻¹ s⁻¹	0.3 nM	7.9e-05 s⁻¹	260000 M⁻¹ s⁻¹	0.16 nM	114 pM	86.3 pM	–	anti-PACAP antibody Ab12.H (antibody, human IgG1, kappa, N297A, V domains shown, humanized form of Ab12, full length) VH: EVQLVESGGGLVQPGGSLRLSCAASGFSLSSYAMGWVRQAPGKGLEWIGDISTYGTTDYASWVYGRFTISRDNSKNTVYLQMNSLRAEDTAVYFCARDYWLSLWGQGTLVTVSS VL: AAQLTQSPSTLSASVGDRVTITCQSSQSVYDNNALAWYQQKPGKAPKLLIYAASTLASGVPSRFSGSGSGTEFTLTISSLQPDDFATYYCLGGYYDPADNAFGGGTKVEIKR
983 pM	56.3 nM	1020 pM	4800 nM	0.18 s⁻¹	38000 M⁻¹ s⁻¹	≤ 0.021 nM	≤ 1e-05 s⁻¹	470000 M⁻¹ s⁻¹	≤ 0.013 nM	≤ 1e-05 s⁻¹	760000 M⁻¹ s⁻¹	0.7 nM	260 pM	57.7 pM	0.46 nM	anti-PACAP antibody Ab1.H (antibody, human IgG1, kappa, N297A, V domains shown, humanized form of Ab1, full length) VH: EVQLVESGGGLVQPGGSLRLSCAASGFTVSSAVMNWVRQAPGKGLEWIGSIVASGTTYYASSANGRFTISRDNSKNTLYLQMNSLRAEDTAVYYCARGGGEFFIWGQGTLVTVSS VL: DIQMTQSPSTLSASVGDRVTITCQSSESVYSNYLSWYQQKPGKAPKFLIYQASNLASGVPSRFSGSGSGTEFTLTISSLQPDDFATYYCAGGYSENIVGFGGGTKVEIKR
